Data as given in US20150299305A1.

What was measured:
Assay in all cases: SPR, antibody immobilized, monomeric FcγR injected, steady state, pH 7.4; SPR, monomeric FcγR
[1] = target: Human FcγRI (CD64) (human) (UniProt P12314)
[2] = target: Human FcγRIIIa (CD16a) (human) (UniProt P08637)
[3] = target: Human FcγRIIIb (CD16b) (human) (UniProt O75015)
Chain of Human FcγRIIIb (CD16b) (human) (O75015 17-200 limits assumed): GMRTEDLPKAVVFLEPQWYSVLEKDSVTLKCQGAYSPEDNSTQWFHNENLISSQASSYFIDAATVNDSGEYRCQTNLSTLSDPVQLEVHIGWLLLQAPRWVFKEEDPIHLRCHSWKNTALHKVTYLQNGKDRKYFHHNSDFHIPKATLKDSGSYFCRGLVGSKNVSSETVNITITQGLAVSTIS

Chain of Human FcγRIIIa (CD16a) (human) (P08637 17-208 limits assumed): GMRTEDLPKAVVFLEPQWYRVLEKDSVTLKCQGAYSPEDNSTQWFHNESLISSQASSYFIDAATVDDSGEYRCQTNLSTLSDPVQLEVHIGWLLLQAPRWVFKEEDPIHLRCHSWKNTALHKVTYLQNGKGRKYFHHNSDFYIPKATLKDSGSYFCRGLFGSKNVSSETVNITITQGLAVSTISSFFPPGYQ
Chain of Human FcγRI (CD64) (human) (P12314 16-288 limits assumed): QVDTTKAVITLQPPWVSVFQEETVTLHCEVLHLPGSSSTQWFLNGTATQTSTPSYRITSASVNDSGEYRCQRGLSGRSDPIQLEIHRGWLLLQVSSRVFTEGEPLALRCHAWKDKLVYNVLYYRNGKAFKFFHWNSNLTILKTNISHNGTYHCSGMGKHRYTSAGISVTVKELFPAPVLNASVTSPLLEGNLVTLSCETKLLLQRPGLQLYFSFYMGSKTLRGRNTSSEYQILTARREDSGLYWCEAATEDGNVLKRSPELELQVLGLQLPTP

- Kd [1]: 3.78 µM
- Kd [2]: 6.78 µM
- Kd [3]: 3.49 µM
B1: eculizumab (antibody, human IgG2, kappa)
heavy: QVQLVQSGAEVKKPGASVKVSCKASGYIFSNYWIQWVRQAPGQGLEWMGEILPGSGSTEYTENFKDRVTMTRDTSTSTVYMELSSLRSEDTAVYYCARYFFGSSPNWYFDVWGQGTLVTVSSASTKGPSVFPLAPCSRSTSESTAALGCLVKDYFPEPVTVSWNSGALTSGVHTFPAVLQSSGLYSLSSVVTVPSSNFGTQTYTCNVDHKPSNTKVDKTVERKCCVECPPCPAPPVAGPSVFLFPPKPKDTLMISRTPEVTCVVVDVSQEDPEVQFNWYVDGVEVHNAKTKPREEQFNSTYRVVSVLTVLHQDWLNGKEYKCKVSNKGLPSSIEKTISKAKGQPREPQVYTLPPSQEEMTKNQVSLTCLVKGFYPSDIAVEWESNGQPENNYKTTPPVLDSDGSFFLYSRLTVDKSRWQEGNVFSCSVMHEALHNHYTQKSLSLSLGK
light: DIQMTQSPSSLSASVGDRVTITCGASENIYGALNWYQQKPGKAPKLLIYGATNLADGVPSRFSGSGSGTDFTLTISSLQPEDFATYYCQNVLNTPLTFGQGTKVEIKRTVAAPSVFIFPPSDEQLKSGTASVVCLLNNFYPREAKVQWKVDNALQSGNSQESVTEQDSKDSTYSLSSTLTLSKADYEKHKVYACEVTHQGLSSPVTKSFNRGEC
